Earlier results, collected in paper PMC6704634.

Target: EGFR isoform I (Homo sapiens) (UniProt P00533)

Substance: EGF (from UniProt P01133)
- Kd: 177 nM
